Test results as given in article PMC4072508, “Genome-Wide Prediction and Validation of Peptides That Bind Human Prosurvival Bcl-2 Proteins” (PLoS Computational Biology, 2014).

T1: Bcl-w, Q92843
T1 chain: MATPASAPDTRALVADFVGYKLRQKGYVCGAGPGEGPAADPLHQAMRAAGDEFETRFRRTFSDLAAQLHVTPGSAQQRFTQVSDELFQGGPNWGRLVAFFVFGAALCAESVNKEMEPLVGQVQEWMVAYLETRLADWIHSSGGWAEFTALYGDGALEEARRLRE

T2: Mcl-1, Q07820
T2 chain: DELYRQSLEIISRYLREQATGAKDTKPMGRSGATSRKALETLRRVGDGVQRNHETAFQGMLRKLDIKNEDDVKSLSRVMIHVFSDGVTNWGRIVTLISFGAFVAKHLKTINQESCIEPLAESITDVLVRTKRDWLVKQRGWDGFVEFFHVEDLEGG

T3: Bfl-1, Q16548
T3 chain: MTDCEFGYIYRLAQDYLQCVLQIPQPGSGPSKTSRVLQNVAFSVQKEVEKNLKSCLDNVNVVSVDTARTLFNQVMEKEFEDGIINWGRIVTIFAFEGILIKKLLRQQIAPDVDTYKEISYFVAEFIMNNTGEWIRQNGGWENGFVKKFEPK

T4: Bcl-2, P10415
T4 chain: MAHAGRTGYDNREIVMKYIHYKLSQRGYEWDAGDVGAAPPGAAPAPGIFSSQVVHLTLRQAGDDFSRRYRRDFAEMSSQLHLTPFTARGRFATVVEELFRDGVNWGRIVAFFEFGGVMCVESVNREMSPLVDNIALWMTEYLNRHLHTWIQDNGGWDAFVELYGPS

B1: Bfl-1 (natural protein)
chain: MTDCEFGYIYRLAQDYLQCVLQIPQPGSGPSKTSRVLQNVAFSVQKEVEKNLKSCLDNVNVVSVDTARTLFNQVMEKEFEDGIINWGRIVTIFAFEGILIKKLLRQQIAPDVDTYKEISYFVAEFIMNNTGEWIRQNGGWENGFVKKFEPKSGWMTFLEVTGKICEMLSLLKQYC
B2: Bcl-w (natural protein)
chain: MATPASAPDTRALVADFVGYKLRQKGYVCGAGPGEGPAADPLHQAMRAAGDEFETRFRRTFSDLAAQLHVTPGSAQQRFTQVSDELFQGGPNWGRLVAFFVFGAALCAESVNKEMEPLVGQVQEWMVAYLETQLADWIHSSGGWAEFTALYGDGALEEARRLREGNWASVRTVLTGAVALGALVTVGAFFASK

The binders below were run against Bcl-2, P10415 (assay: peptide SPOT array, c-Myc-tagged receptor at 1 uM or 100 nM, anti-c-Myc-Cy3).
Target sequence in this assay (P10415 1-217): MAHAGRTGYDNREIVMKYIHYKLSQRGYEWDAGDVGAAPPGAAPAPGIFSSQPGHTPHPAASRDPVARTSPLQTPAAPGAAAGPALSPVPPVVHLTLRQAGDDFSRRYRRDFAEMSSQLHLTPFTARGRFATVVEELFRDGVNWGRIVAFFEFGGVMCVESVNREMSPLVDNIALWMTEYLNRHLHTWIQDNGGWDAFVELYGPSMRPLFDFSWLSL

Row | SPOT signal as a fraction of Bim BH3's signal on the same receptor and array | Binder
1 | 0.01 | TDENKKVGLALKDLAKQYSDRLECCE [NUB1]
2 | 0.105 | SSLSDGLPVHLANIADELTQKKKMFK [AGBL2]
3 | 0.01 | NATHEEVVHLLRNAGDEVTITVEYLR [SNTG2]
4 | 0.06 | KSRLVQQSKALKELADELQERCQRPA [TRIM58]
5 | 0.19 | FTGNNTAVQELKRVSEQFTATFRRKA [TUBB4Q]
6 | 0.13 | EEIIHKLAMQLRHIGDNIDHRMVRED [PXT1]
7 | 0.28 | RYRHGAPAEQLRHLADMLTTKWATLQ [PLEKHH1]
8 | 0.04 | RYPILENPEILRKTADDFLNRIALTD [CCNH]
9 | 0.38 | FERVEQMCIQIKEVGDRVNYIKRSLQ [TRPM7]
10 | 0.1 | EVLAGPLAQRLSHIAEDVGRLVKKSR [ARHGAP4]

Target: T1, Bcl-w, Q92843
Assay: as above

Row | SPOT signal as a fraction of Bim BH3's signal on the same receptor and array | Binder
11 | 0.02 | TDENKKVGLALKDLAKQYSDRLECCE [NUB1]
12 | 0.74 | SSLSDGLPVHLANIADELTQKKKMFK [AGBL2]
13 | 0.02 | NATHEEVVHLLRNAGDEVTITVEYLR [SNTG2]
14 | 0.29 | KSRLVQQSKALKELADELQERCQRPA [TRIM58]
15 | 0.92 | FTGNNTAVQELKRVSEQFTATFRRKA [TUBB4Q]
16 | 0.99 | EEIIHKLAMQLRHIGDNIDHRMVRED [PXT1]
17 | 0.81 | RYRHGAPAEQLRHLADMLTTKWATLQ [PLEKHH1]
18 | 0.24 | RYPILENPEILRKTADDFLNRIALTD [CCNH]
19 | 0.2 | FERVEQMCIQIKEVGDRVNYIKRSLQ [TRPM7]
20 | 0.94 | EVLAGPLAQRLSHIAEDVGRLVKKSR [ARHGAP4]

These binders were tested against Bcl-xL, Q07817 in the same assay as above.
Sequence of Bcl-xL, Q07817 (Q07817 1-209): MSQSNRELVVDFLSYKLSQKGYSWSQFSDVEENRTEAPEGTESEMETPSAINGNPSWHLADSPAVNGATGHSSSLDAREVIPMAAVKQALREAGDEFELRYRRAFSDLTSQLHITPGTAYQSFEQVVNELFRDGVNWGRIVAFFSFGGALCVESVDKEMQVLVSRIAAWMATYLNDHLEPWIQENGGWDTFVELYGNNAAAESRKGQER

Row | SPOT signal as a fraction of Bim BH3's signal on the same receptor and array | Binder
21 | 0.11 | TDENKKVGLALKDLAKQYSDRLECCE [NUB1]
22 | 0.25 | SSLSDGLPVHLANIADELTQKKKMFK [AGBL2]
23 | 0.04 | NATHEEVVHLLRNAGDEVTITVEYLR [SNTG2]
24 | 0.29 | KSRLVQQSKALKELADELQERCQRPA [TRIM58]
25 | 0.93 | FTGNNTAVQELKRVSEQFTATFRRKA [TUBB4Q]
26 | 0.26 | EEIIHKLAMQLRHIGDNIDHRMVRED [PXT1]
27 | 1.44 | RYRHGAPAEQLRHLADMLTTKWATLQ [PLEKHH1]
28 | 0.06 | RYPILENPEILRKTADDFLNRIALTD [CCNH]
29 | 0.34 | FERVEQMCIQIKEVGDRVNYIKRSLQ [TRPM7]
30 | 0.4 | EVLAGPLAQRLSHIAEDVGRLVKKSR [ARHGAP4]

Target: T2, Mcl-1, Q07820
Assay: as above

Row | SPOT signal as a fraction of Bim BH3's signal on the same receptor and array | Binder
31 | 0.02 | TDENKKVGLALKDLAKQYSDRLECCE [NUB1]
32 | 0.11 | SSLSDGLPVHLANIADELTQKKKMFK [AGBL2]
33 | 0.09 | NATHEEVVHLLRNAGDEVTITVEYLR [SNTG2]
34 | 0.05 | KSRLVQQSKALKELADELQERCQRPA [TRIM58]
35 | 0.41 | FTGNNTAVQELKRVSEQFTATFRRKA [TUBB4Q]
36 | 0.9 | EEIIHKLAMQLRHIGDNIDHRMVRED [PXT1]
37 | 0.41 | RYRHGAPAEQLRHLADMLTTKWATLQ [PLEKHH1]
38 | 0.02 | RYPILENPEILRKTADDFLNRIALTD [CCNH]
39 | 0.44 | FERVEQMCIQIKEVGDRVNYIKRSLQ [TRPM7]
40 | 0.28 | EVLAGPLAQRLSHIAEDVGRLVKKSR [ARHGAP4]

Target: T3, Bfl-1, Q16548
Assay: as above

Row | SPOT signal as a fraction of Bim BH3's signal on the same receptor and array | Binder
41 | 0.02 | TDENKKVGLALKDLAKQYSDRLECCE [NUB1]
42 | 0.15 | SSLSDGLPVHLANIADELTQKKKMFK [AGBL2]
43 | 0.01 | NATHEEVVHLLRNAGDEVTITVEYLR [SNTG2]
44 | 0.11 | KSRLVQQSKALKELADELQERCQRPA [TRIM58]
45 | 0.8 | FTGNNTAVQELKRVSEQFTATFRRKA [TUBB4Q]
46 | 0.99 | EEIIHKLAMQLRHIGDNIDHRMVRED [PXT1]
47 | 0.56 | RYRHGAPAEQLRHLADMLTTKWATLQ [PLEKHH1]
48 | 0.02 | RYPILENPEILRKTADDFLNRIALTD [CCNH]
49 | 0.49 | FERVEQMCIQIKEVGDRVNYIKRSLQ [TRPM7]
50 | 0.4 | EVLAGPLAQRLSHIAEDVGRLVKKSR [ARHGAP4]

The binders below were run against PXT1 BH3-like peptide (human) (assay: fluorescence polarisation; direct binding: 10 nM FAM-labeled peptide, receptor serially diluted; 25°C; 20 mM NaPO4, 50 mM NaCl, 1 mM EDTA, 0.001% Triton X, pH 7.8; single-site binding model).

Row | Kd | Binder
51 | < 30 nM | B1
52 | < 30 nM | B2

Target: T1, Bcl-w, Q92843
Assay: fluorescence polarisation, direct titration of receptor into 10 nM labelled peptide

Row | Kd | Binder
53 | > 4000 nM | TDENKKVGLALKDLAKQYSDRLECCE [NUB1]
54 | 5870 nM | SSLSDGLPVHLANIADELTQKKKMFK [AGBL2]
55 | > 6560 nM | NATHEEVVHLLRNAGDEVTITVEYLR [SNTG2]
56 | 361 nM | KSRLVQQSKALKELADELQERCQRPA [TRIM58]
57 | 2490 nM | FTGNNTAVQELKRVSEQFTATFRRKA [TUBB4Q]
58 | 5 nM | EEIIHKLAMQLRHIGDNIDHRMVRED [PXT1]
59 | 1400 nM | RYRHGAPAEQLRHLADMLTTKWATLQ [PLEKHH1]
60 | 1920 nM | RYPILENPEILRKTADDFLNRIALTD [CCNH]
61 | 2490 nM | FERVEQMCIQIKEVGDRVNYIKRSLQ [TRPM7]
62 | 749 nM | EVLAGPLAQRLSHIAEDVGRLVKKSR [ARHGAP4]

The binders below were run against Bcl-xL, Q07817 in the same assay as above.

Row | Kd | Binder
63 | 2720 nM | TDENKKVGLALKDLAKQYSDRLECCE [NUB1]
64 | > 4000 nM | SSLSDGLPVHLANIADELTQKKKMFK [AGBL2]
65 | > 4000 nM | NATHEEVVHLLRNAGDEVTITVEYLR [SNTG2]
66 | 4550 nM | KSRLVQQSKALKELADELQERCQRPA [TRIM58]
67 | 2050 nM | FTGNNTAVQELKRVSEQFTATFRRKA [TUBB4Q]
68 | 8 nM | EEIIHKLAMQLRHIGDNIDHRMVRED [PXT1]
69 | 650 nM | RYRHGAPAEQLRHLADMLTTKWATLQ [PLEKHH1]
70 | > 5720 nM | RYPILENPEILRKTADDFLNRIALTD [CCNH]
71 | 679 nM | FERVEQMCIQIKEVGDRVNYIKRSLQ [TRPM7]
72 | 3060 nM | EVLAGPLAQRLSHIAEDVGRLVKKSR [ARHGAP4]

Target: T2, Mcl-1, Q07820
Assay: as above

Row | Kd | Binder
73 | > 10000 nM | TDENKKVGLALKDLAKQYSDRLECCE [NUB1]
74 | > 5020 nM | SSLSDGLPVHLANIADELTQKKKMFK [AGBL2]
75 | 22 nM | NATHEEVVHLLRNAGDEVTITVEYLR [SNTG2]
76 | > 6070 nM | KSRLVQQSKALKELADELQERCQRPA [TRIM58]
77 | 1460 nM | FTGNNTAVQELKRVSEQFTATFRRKA [TUBB4Q]
78 | 0.9 nM | EEIIHKLAMQLRHIGDNIDHRMVRED [PXT1]
79 | 977 nM | RYRHGAPAEQLRHLADMLTTKWATLQ [PLEKHH1]
80 | > 4000 nM | RYPILENPEILRKTADDFLNRIALTD [CCNH]
81 | 592 nM | FERVEQMCIQIKEVGDRVNYIKRSLQ [TRPM7]
82 | > 2430 nM | EVLAGPLAQRLSHIAEDVGRLVKKSR [ARHGAP4]

Target: T4, Bcl-2, P10415
Assay: as above

Row | Kd | Binder
83 | 562 nM | TDENKKVGLALKDLAKQYSDRLECCE [NUB1]
84 | > 100000 nM | SSLSDGLPVHLANIADELTQKKKMFK [AGBL2]
85 | > 3040 nM | NATHEEVVHLLRNAGDEVTITVEYLR [SNTG2]
86 | 975 nM | KSRLVQQSKALKELADELQERCQRPA [TRIM58]
87 | 1410 nM | FTGNNTAVQELKRVSEQFTATFRRKA [TUBB4Q]
88 | 14 nM | EEIIHKLAMQLRHIGDNIDHRMVRED [PXT1]
89 | 1500 nM | RYRHGAPAEQLRHLADMLTTKWATLQ [PLEKHH1]
90 | 7130 nM | RYPILENPEILRKTADDFLNRIALTD [CCNH]
91 | 124 nM | FERVEQMCIQIKEVGDRVNYIKRSLQ [TRPM7]
92 | 6090 nM | EVLAGPLAQRLSHIAEDVGRLVKKSR [ARHGAP4]

Target: T3, Bfl-1, Q16548
Assay: as above

Row | Kd | Binder
93 | > 4 µM | TDENKKVGLALKDLAKQYSDRLECCE [NUB1]
94 | > 4.67 µM | SSLSDGLPVHLANIADELTQKKKMFK [AGBL2]
95 | > 4.07 µM | NATHEEVVHLLRNAGDEVTITVEYLR [SNTG2]
96 | > 4.67 µM | KSRLVQQSKALKELADELQERCQRPA [TRIM58]
97 | > 4.67 µM | FTGNNTAVQELKRVSEQFTATFRRKA [TUBB4Q]
98 | 0.001 µM | EEIIHKLAMQLRHIGDNIDHRMVRED [PXT1]
99 | > 5.68 µM | RYRHGAPAEQLRHLADMLTTKWATLQ [PLEKHH1]
100 | > 9.62 µM | RYPILENPEILRKTADDFLNRIALTD [CCNH]
101 | 1.9 µM | FERVEQMCIQIKEVGDRVNYIKRSLQ [TRPM7]
102 | > 5.59 µM | EVLAGPLAQRLSHIAEDVGRLVKKSR [ARHGAP4]
